No end group written: not given here.
Legend:
human B7-H3 = target: T1, human B7-H3 (human, UniProt Q5ZPR3 29-534); assay: IHC on FFPE samples
T1 construct: whole, on cells; Endogenous protein detected in FFPE cells and tissues by IHC, and as a 110 kDa band in SDS-PAGE-fractionated cell lysates by Western blot; also called B7-H3 polypeptide
T1 sequence (looked up): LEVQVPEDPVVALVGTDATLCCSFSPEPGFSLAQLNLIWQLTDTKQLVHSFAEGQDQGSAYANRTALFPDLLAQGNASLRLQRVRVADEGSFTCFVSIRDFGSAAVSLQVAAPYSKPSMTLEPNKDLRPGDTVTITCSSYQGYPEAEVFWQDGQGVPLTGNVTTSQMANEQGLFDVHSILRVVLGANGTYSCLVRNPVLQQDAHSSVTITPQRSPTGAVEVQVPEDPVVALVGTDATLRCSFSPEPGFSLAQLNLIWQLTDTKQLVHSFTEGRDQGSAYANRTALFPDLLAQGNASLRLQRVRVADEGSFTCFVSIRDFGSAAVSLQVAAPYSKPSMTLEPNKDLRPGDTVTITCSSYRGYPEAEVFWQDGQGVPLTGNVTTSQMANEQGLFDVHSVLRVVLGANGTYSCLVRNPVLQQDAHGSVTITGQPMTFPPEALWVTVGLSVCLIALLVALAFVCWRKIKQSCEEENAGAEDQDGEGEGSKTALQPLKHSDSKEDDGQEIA
Description: Rabbit anti-human B7-H3 monoclonal antibodies SP265 and S10H50L58 were applied onto formalin-fixed paraffin embedded (FFPE) tissue samples to assess the staining patterns of these antibodies. Tissue samples include Hs700t (positive control), kidney (negative control) and renal cell carcinoma (positive control). IHC was performed on BenchMark Ultra (Ventana Medical Systems) using mild CC1 cell conditioning with OptiView detection kit.

[1] = target: T2, peptide immunogen (human B7-H3 aa 521-534), KHSDSKEDDGQEIA (human, not fully specified); assay: ELISA, antibody on immobilized peptide immunogen
T2 construct: also called immobilized peptide immunogen
T2 peptide: KHSDSKEDDGQEIA
Description: ELISA studies were performed with the SP265 antibody to evaluate binding to the immobilized peptide immunogen (human B7-H3 aa 521-534).

B1: Rabbit anti-human B7-H3 monoclonal antibody SP265 (antibody, V domains shown)
VH: QSVEESRGGLIKPTDTLTLTCTVSGFSLGSYGVSWVRQAPGNGLEWIGGSGKRGNPYYASWAKSRSTITRNTNLNTVTLKMTSLTAADTATYFCASRAPVVSTSMTFNIWGPGTLVTVSS
VL: AQVPTQTPSPVSAAVGGTVTINCQASQSVYNNKNLSWYQQKPGQPPKLLIYEASTLASGVPSRFSGSGSGTQFALTISGVQCEDAATYYCQGEFTCSGADCGAFGGGTEVVVK
notes: also called SP265 anti-B7-H3 antibody; SP265 B7-H3 antibody
- binding result (human B7-H3): binds
- EC50 [1]: 0.067 nM
